What was measured:
Test in all cases: holdup assay
Design in all cases: key: below the threshold = too weak to quantify, mostly under pKd 3.1 to 4
[1] = biological target: T1, APBA1_2, Q02410
T1 sequence (Q02410 742-832, limits assumed, looked up): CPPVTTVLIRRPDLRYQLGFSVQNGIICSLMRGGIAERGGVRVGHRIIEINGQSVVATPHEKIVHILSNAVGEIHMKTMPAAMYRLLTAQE

[2] = biological target: T2, CARD11, Q9BXL7
T2 sequence (Q9BXL7 662-765, limits assumed, looked up): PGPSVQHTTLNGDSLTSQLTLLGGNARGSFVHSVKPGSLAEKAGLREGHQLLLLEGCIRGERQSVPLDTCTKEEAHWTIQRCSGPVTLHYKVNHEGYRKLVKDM

[3] = biological target: DLG2_2, Q15700
[4] = biological target: T3, DLG3_3, Q92796
T3 sequence (Q92796 374-475, limits assumed, looked up): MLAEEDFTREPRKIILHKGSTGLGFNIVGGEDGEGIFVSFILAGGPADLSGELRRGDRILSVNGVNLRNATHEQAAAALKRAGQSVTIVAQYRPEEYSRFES

[5] = biological target: T4, DVL3, Q92997
T4 sequence (Q92997 244-331, limits assumed, looked up): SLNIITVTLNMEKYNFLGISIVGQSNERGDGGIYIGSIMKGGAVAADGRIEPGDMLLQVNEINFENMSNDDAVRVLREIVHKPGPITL

[6] = biological target: T5, FRMPD1, Q5SYB0
T5 sequence (Q5SYB0 52-145, limits assumed, looked up): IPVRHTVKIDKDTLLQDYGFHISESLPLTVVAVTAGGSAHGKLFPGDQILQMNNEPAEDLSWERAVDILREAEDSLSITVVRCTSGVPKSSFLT

[7] = biological target: FRMPD4, Q14CM0
[8] = biological target: GRASP, Q7Z6J2
[9] = biological target: HTRA2, O43464
[10] = biological target: T6, HTRA4, P83105
T6 sequence (P83105 378-476, limits assumed, looked up): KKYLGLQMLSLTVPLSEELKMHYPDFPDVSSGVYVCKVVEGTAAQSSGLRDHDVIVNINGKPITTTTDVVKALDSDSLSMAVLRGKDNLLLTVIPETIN

[11] = biological target: IL16_4, Q14005
[12] = biological target: Inadl_10, Q8NI35
[13] = biological target: Inadl_8, Q8NI35
[14] = biological target: Inadl_9, Q8NI35
[15] = biological target: LAP2, Q96RT1
[16] = biological target: MAGI2_2, Q86UL8
[17] = biological target: MAGI2_3, Q86UL8
[18] = biological target: T7, MPP6, Q9NZW5
T7 sequence (Q9NZW5 125-219, limits assumed, looked up): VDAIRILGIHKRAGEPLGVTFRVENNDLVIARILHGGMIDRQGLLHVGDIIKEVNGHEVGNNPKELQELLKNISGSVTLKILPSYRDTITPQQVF

[19] = biological target: NHERF2_2, Q15599
[20] = biological target: T8, NHERF3_3, Q5T2W1
T8 sequence (Q5T2W1 238-333, limits assumed, looked up): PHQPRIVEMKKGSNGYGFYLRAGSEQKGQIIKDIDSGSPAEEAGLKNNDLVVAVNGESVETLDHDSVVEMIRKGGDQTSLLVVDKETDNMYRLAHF

[21] = biological target: T9, NHERF3_4, Q5T2W1
T9 sequence (Q5T2W1 373-468, limits assumed, looked up): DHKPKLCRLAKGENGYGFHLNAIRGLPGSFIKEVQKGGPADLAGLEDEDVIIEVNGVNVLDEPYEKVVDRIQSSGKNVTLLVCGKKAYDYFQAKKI

[22] = biological target: NHERF4_2, Q86UT5
[23] = biological target: T10, PDZD2_2, O15018
T10 sequence (O15018 329-429, limits assumed, looked up): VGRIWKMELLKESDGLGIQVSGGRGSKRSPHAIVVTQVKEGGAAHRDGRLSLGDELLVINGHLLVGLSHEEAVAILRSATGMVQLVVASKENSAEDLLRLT

[24] = biological target: T11, PDZD7_3, Q9H5P4
T11 sequence (Q9H5P4 857-944, limits assumed, looked up): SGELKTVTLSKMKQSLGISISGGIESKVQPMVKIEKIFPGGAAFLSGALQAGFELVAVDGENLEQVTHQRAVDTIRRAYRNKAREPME

[25] = biological target: PDZRN4_1, Q6ZMN7
[26] = biological target: T12, RHPN1, Q8TCX5
T12 sequence (Q8TCX5 508-602, limits assumed, looked up): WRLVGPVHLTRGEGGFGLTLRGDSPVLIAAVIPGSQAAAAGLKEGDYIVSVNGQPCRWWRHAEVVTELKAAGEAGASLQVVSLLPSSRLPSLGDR

[27] = plain residues with an end cap or a label only (N-terminal biotin on a linker: ttds)
[28] = plain residues with an end cap or a label only (N-terminal biotin on a linker: ahx)

MAGI2_3, Q86UL8, sequence (Q86UL8 600-682): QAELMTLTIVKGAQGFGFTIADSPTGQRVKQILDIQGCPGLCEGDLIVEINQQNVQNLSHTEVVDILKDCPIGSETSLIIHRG
Inadl_8, Q8NI35, sequence (Q8NI35 1425-1530): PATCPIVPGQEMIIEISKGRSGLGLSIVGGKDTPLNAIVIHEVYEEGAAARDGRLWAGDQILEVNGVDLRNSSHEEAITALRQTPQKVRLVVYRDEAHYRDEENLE
FRMPD4, Q14CM0, sequence (Q14CM0 67-160): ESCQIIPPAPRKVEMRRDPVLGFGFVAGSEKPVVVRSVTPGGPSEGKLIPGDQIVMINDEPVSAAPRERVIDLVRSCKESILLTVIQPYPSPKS
HTRA2, O43464, sequence (O43464 355-458): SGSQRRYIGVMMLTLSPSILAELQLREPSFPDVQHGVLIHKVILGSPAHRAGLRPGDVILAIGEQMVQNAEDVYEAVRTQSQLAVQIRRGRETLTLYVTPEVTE
PDZRN4_1, Q6ZMN7, sequence (Q6ZMN7 213-318): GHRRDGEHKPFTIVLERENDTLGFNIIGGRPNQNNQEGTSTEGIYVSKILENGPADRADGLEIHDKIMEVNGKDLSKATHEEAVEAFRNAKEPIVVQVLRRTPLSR
NHERF4_2, Q86UT5, sequence (Q86UT5 220-308): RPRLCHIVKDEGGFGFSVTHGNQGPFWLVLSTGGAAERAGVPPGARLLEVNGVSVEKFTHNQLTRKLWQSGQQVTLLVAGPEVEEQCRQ
GRASP, Q7Z6J2, sequence (Q7Z6J2 96-193): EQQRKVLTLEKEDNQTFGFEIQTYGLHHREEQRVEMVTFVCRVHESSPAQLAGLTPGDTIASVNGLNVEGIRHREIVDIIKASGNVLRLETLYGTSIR
IL16_4, Q14005, sequence (Q14005 1229-1329): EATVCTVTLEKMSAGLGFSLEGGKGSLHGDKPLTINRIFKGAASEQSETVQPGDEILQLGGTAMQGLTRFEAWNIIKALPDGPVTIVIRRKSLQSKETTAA
DLG2_2, Q15700, sequence (Q15700 189-283): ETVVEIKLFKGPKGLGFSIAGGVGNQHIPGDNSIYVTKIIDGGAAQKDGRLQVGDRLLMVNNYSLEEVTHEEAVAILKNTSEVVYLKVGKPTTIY
MAGI2_2, Q86UL8, sequence (Q86UL8 410-522): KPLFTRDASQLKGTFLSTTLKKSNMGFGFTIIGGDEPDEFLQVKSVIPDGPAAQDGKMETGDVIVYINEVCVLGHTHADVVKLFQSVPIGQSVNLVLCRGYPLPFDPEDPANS
NHERF2_2, Q15599, sequence (Q15599 142-238): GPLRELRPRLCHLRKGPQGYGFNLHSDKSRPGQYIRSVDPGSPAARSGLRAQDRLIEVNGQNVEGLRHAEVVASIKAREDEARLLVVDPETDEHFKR
Inadl_10, Q8NI35, sequence (Q8NI35 1673-1763): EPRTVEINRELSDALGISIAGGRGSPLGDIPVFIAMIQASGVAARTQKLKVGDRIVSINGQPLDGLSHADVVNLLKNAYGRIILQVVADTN
Inadl_9, Q8NI35, sequence (Q8NI35 1530-1615): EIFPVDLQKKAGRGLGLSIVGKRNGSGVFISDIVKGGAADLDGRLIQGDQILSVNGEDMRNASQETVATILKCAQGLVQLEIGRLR
LAP2, Q96RT1, sequence (Q96RT1 other isoform, or with tags, fused parts or gaps): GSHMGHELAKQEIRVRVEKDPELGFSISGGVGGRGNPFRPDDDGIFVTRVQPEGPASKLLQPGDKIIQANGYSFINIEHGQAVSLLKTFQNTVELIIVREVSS

B1: RASSF6, Q6ZTQ3 (peptide)
chain: KLVIKTETTV
pKd [1, 27]: below the threshold | pKd [2, 27]: below the threshold | pKd [3, 27]: 5.24 | pKd [4, 27]: 4.43 | pKd [5, 27]: below the threshold | pKd [6, 27]: below the threshold | pKd [7, 27]: below the threshold | pKd [8, 27]: 3.51 | pKd [9, 27]: below the threshold | pKd [10, 27]: 3.46 | pKd [11, 27]: 3.49 | pKd [12, 27]: below the threshold | pKd [13, 27]: below the threshold | pKd [14, 27]: 3.54 | pKd [15, 27]: below the threshold | pKd [16, 27]: 5.11 | pKd [17, 27]: 3.73 | pKd [18, 27]: below the threshold | pKd [19, 27]: below the threshold | pKd [20, 27]: below the threshold | pKd [21, 27]: below the threshold | pKd [22, 27]: below the threshold | pKd [23, 27]: 3.65 | pKd [24, 27]: 4.39 | pKd [25, 27]: 4.15 | pKd [26, 27]: 3.93

B2: GPR6, P46095 (peptide)
chain: PFRSRSPSEV
pKd [1, 27]: 3.83 | pKd [2, 27]: below the threshold | pKd [3, 27]: below the threshold | pKd [4, 27]: below the threshold | pKd [5, 27]: 3.6 | pKd [6, 27]: below the threshold | pKd [7, 27]: below the threshold | pKd [8, 27]: below the threshold | pKd [9, 27]: below the threshold | pKd [10, 27]: below the threshold | pKd [11, 27]: below the threshold | pKd [12, 27]: below the threshold | pKd [13, 27]: 4.04 | pKd [14, 27]: 3.47 | pKd [15, 27]: below the threshold | pKd [16, 27]: below the threshold | pKd [17, 27]: below the threshold | pKd [18, 27]: below the threshold | pKd [19, 27]: below the threshold | pKd [20, 27]: below the threshold | pKd [21, 27]: below the threshold | pKd [22, 27]: below the threshold | pKd [23, 27]: 3.8 | pKd [24, 27]: below the threshold | pKd [25, 27]: 3.57 | pKd [26, 27]: below the threshold

B3: FZD7, O75084 (peptide)
chain: SHSSKGETAV
pKd [1, 27]: 3.8 | pKd [2, 27]: 3.67 | pKd [3, 27]: 4.55 | pKd [4, 27]: 4.12 | pKd [5, 27]: below the threshold | pKd [6, 27]: 3.6 | pKd [7, 27]: 3.52 | pKd [8, 27]: 3.45 | pKd [9, 27]: below the threshold | pKd [10, 27]: below the threshold | pKd [11, 27]: below the threshold | pKd [12, 27]: below the threshold | pKd [13, 27]: below the threshold | pKd [14, 27]: below the threshold | pKd [15, 27]: 4.04 | pKd [16, 27]: 4.67 | pKd [17, 27]: 3.49 | pKd [18, 27]: below the threshold | pKd [19, 27]: below the threshold | pKd [20, 27]: below the threshold | pKd [21, 27]: below the threshold | pKd [22, 27]: below the threshold | pKd [23, 27]: 4.09 | pKd [24, 27]: 3.86 | pKd [25, 27]: 4.3 | pKd [26, 27]: below the threshold

B4: USH1C, Q9Y6N9 (peptide)
chain: KEYDDELTFF
pKd [1, 28]: below the threshold | pKd [2, 28]: below the threshold | pKd [3, 28]: below the threshold | pKd [4, 28]: below the threshold | pKd [5, 28]: 3.62 | pKd [6, 28]: below the threshold | pKd [7, 28]: 4.42 | pKd [8, 28]: 4.41 | pKd [9, 28]: below the threshold | pKd [10, 28]: below the threshold | pKd [11, 28]: below the threshold | pKd [12, 28]: below the threshold | pKd [13, 28]: below the threshold | pKd [14, 28]: below the threshold | pKd [15, 28]: below the threshold | pKd [16, 28]: below the threshold | pKd [17, 28]: below the threshold | pKd [18, 28]: below the threshold | pKd [19, 28]: 5.32 | pKd [20, 28]: below the threshold | pKd [21, 28]: 3.8 | pKd [22, 28]: below the threshold | pKd [23, 28]: 3.75 | pKd [24, 28]: 3.64 | pKd [25, 28]: below the threshold | pKd [26, 28]: 4.11
